The target in assay [1] is T1, hMRP5-Δ1-94-8xHis (human, UniProt O15440 95-1437, RED-tris-NTA 2nd Generation dye on the His tag).
T1 construct: human multidrug resistance protein 5 (MRP5, ABCC5), UniProt O15440, without the flexible N-terminal region Met1-Thr94; Plasmids and primers are in Supplementary Data 1 and 2; source: HEK293F, transfected; digitonin-purified (HEPES buffer instead of Tris)
Briefly: MST; digitonin-purified hMRP5-Δ1-94-8xHis labelled with RED-tris-NTA 2nd Generation dye; serially diluted peptides; 15 min at room temperature; HEPES buffer; 3% LED/excitation power, medium MST power (Monolith NT). Conditions: both partners purified.

Assay [2] addresses T2, hMRP5-Δ1-94 (human, UniProt O15440 95-1437).
T2 construct: human multidrug resistance protein 5 (MRP5, ABCC5), UniProt O15440, without the flexible N-terminal region Met1-Thr94; This is the construct used for cryo-EM; Plasmids and primers are in Supplementary Data 1 and 2; also called hMRP5-Δ1-94 truncation mutant; apo form; source: HEK293F, transfected, purified (strep-Tactin, SEC on Superose 6 Increase, digitonin)
Briefly: cryo-EM structure; peptide M5PI and hMRP5-Δ1-94 incubated on ice at a ratio of 2:1 for 1 h before vitrification; digitonin. To be noted: both partners purified.

T1 sequence (O15440 95-1437, stated change not applied): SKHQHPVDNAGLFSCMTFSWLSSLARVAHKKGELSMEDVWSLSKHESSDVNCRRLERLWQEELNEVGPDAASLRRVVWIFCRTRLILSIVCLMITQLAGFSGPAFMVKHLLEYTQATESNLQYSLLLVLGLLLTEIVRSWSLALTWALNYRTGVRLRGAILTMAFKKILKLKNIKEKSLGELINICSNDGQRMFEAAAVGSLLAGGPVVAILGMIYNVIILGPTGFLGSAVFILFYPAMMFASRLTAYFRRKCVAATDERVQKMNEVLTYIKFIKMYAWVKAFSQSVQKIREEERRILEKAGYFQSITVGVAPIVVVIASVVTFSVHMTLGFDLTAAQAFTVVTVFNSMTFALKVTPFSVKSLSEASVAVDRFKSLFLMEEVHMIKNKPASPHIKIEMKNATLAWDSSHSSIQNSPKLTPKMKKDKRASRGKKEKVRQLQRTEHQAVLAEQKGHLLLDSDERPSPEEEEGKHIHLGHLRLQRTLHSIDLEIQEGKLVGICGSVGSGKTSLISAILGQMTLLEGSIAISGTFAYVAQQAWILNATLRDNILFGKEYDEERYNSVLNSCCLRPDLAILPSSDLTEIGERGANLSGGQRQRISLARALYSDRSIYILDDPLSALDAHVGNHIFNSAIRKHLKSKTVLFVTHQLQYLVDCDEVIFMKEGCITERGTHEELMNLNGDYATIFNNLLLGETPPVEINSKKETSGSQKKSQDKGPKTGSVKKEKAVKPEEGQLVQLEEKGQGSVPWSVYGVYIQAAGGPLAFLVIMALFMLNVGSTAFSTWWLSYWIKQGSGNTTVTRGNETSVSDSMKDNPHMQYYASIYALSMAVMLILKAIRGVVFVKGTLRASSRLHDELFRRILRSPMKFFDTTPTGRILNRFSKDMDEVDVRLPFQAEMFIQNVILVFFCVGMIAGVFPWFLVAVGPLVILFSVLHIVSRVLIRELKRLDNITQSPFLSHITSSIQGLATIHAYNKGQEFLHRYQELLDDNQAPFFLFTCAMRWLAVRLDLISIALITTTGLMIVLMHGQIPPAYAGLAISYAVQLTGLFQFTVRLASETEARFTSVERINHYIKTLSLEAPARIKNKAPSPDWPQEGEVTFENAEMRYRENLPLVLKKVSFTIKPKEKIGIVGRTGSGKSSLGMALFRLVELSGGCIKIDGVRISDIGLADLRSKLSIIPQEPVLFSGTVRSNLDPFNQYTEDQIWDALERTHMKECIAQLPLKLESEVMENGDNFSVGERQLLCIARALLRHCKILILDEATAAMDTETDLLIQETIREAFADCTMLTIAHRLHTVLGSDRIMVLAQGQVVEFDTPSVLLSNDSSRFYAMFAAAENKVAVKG
T2 sequence (O15440 95-1437, stated change not applied): as above

B1: MRP5 potential peptide inhibitor (M5PI) (peptide, UniProt O15440 35-75, looked up)
peptide: CSKFRRTRPLECQDALETAARAEGLSLDASMHSQLRILDEC
notes: stretch 35-75 of the N-terminal loop of human MRP5 (UniProt O15440) with both terminal residues replaced by cysteine; The cysteines were meant for cyclisation; also called D35C-E75C; Asp35Cys-Glu75Cys; source: synthetic peptide (GL Biochem, Shanghai)
With B1, the binding result in assay [1] and in assay [2] was “binds” in each case.

Source of the values: PMC11156954, “Inhibition and transport mechanisms of the ABC transporter hMRP5” (Nature Communications, 2024).
